Test results published in paper PMC10483697.

Target: truncated HsDNPH1 (Homo sapiens 2′-deoxynucleoside 5′-phosphate N-hydrolase 1) (human) (UniProt O43598)
Test: crystal structure; HsDNPH1^Trunc at 8 mg/mL in 30 mM Tris-HCl pH 7.5, 150 mM NaCl, hanging drop, 20 °C, reservoir pH 4.0 with 20% PEG 1500; unliganded crystals and crystals soaked with 50 mM dUMP

stoichiometry N: 2
Substance: truncated HsDNPH1 (Homo sapiens 2′-deoxynucleoside 5′-phosphate N-hydrolase 1) (from UniProt O43598 20-162) (enzyme)
